B1: Anti-CD3 Ly305 (antibody, V domains shown)
VH: EVQLVESGGGLVQPGGSLRLSCAASGFTFSTYAMNWVRQAPGKGLEWVGRIRSKYNNYATYYADSVKGRFTISRDDSKNSLYLQMNSLKTEDTAVYYCVRHGNFGNSYVSWFAYWGQGTLVTVSS
VL: QAVVTQEPSLTVSPGGTVTLTCRSSTGAVTTSNYANWVQQKPGQAPRGLIGGTNKRAPWTPARFSGSLLGGKAALTITGAQAEDEADYYCALWYSNLWVFGGGTKLTVL
notes: mAb; also called parent anti-CD3 mAb
B2: Ly1965 (bispecific antibody)
chain 1: QVQLVQSGAEVKKPGASVKVSCKASGYTFTSYVMHWVRQKPGQGLEWIGYINPYNEGTESTDKFKGRATMTSDKSTSTVYMELSSLRSEDTAVYYCASIYYGYEGTYFGVWGQGTLVTVSSASTKGPSVFPLAPSSKSTSGGTAALGCLVKDYFPEPVTVSWNSGALTSGVHTFPAVLQSSGLYSLSSVVTVPSSSLGTQTYICNVNHKPSNTKVDKKVEPKSCGGGGSGGGGSGGGGSGGGGSEVQLVESGGGLVQPGGSLRLSCAASGFTFSTYAMNWVRQAPGKGLEWVGRIRSKYNNYATYYADSVKGRFTISRDDSKNSLYLQMNSLKTEDTAVYYCVRHGNFGNSYVSWFAYWGQGTLVTVSSGGGGSDKTHTCPPCPAPEAAGPSVFLFPPKPKDTLMISRTPEVTCVVVDVSHEDPEVKFNWYVDGVEVHNAKTKPREEQYNSTYRVVSVLTVLHQDWLNGKEYKCKVSNKALPAPIEKTISKAKGQPREPQVYTLPPSREEMTKNQVSLWCLVKGFYPSDIAVEWESNGQPENNYKTTPPVLDSDGSFFLYSKLTVDKSRWQQGNVFSCSVMHEALHNHYTQKSLSLSPG
chain 2: QVQLVQSGAEVKKPGASVKVSCKASGYTFTSYVMHWVRQKPGQGLEWIGYINPYNEGTESTDKFKGRATMTSDKSTSTVYMELSSLRSEDTAVYYCASIYYGYEGTYFGVWGQGTLVTVSSASTKGPSVFPLAPSSKSTSGGTAALGCLVKDYFPEPVTVSWNSGALTSGVHTFPAVLQSSGLYSLSSVVTVPSSSLGTQTYICNVNHKPSNTKVDKKVEPKSCGGGGSGGGGSGGGGSGGGGSQAVVTQEPSLTVSPGGTVTLTCRSSTGAVTTSNYANWVQQKPGQAPRGLIGGTNKRAPWTPARFSGSLLGGKAALTITGAQAEDEADYYCALWYSNLWVFGGGTKLTVLGGGGSDKTHTCPPCPAPEAAGPSVFLFPPKPKDTLMISRTPEVTCVVVDVSHEDPEVKFNWYVDGVEVHNAKTKPREEQYNSTYRVVSVLTVLHQDWLNGKEYKCKVSNKALPAPIEKTISKAKGQPREPQVYTLPPSREEMTKNQVSLSCAVKGFYPSDIAVEWESNGQPENNYKTTPPVLDSDGSFFLVSKLTVDKSRWQQGNVFSCSVMHEALHNRFTQKSLSLSPG
chain 3: EIVLTQSPATLSLSPGERATLSCRASSSVSYMHWYQQKPGQAPRPWIYATSNLASGIPARFSGSRSGTDYTLTISSLEPEDFAVYYCQQWSSNTLTFGGGTKVEIKRTVAAPSVFIFPPSDEQLKSGTASVVCLLNNFYPREAKVQWKVDNALQSGNSQESVTEQDSKDSTYSLSSTLTLSKADYEKHKVYACEVTHQGLSSPVTKSFNRGEC
notes: B7H3/CD3; central CD3 Fv
B3: Ly1963 (multi-specific antibody)
chain 1: QVQLVQSGAEVKKPGASVKVSCKASGYTFTSYVMHWVRQKPGQGLEWIGYINPYNEGTESTDKFKGRATMTSDKSTSTVYMELSSLRSEDTAVYYCASIYYGYEGTYFGVWGQGTLVTVSSASTKGPSVFPLAPSSKSTSGGTAALGCLVKDYFPEPVTVSWNSGALTSGVHTFPAVLQSSGLYSLSSVVTVPSSSLGTQTYICNVNHKPSNTKVDKKVEPKSCGGGGSGGGGSGGGGSGGGGSEVQLVESGGGLVQPGGSLRLSCAASGFTFSTYAMNWVRQAPGKGLEWVGRIRSKYNNYATYYADSVKGRFTISRDDSKNSLYLQMNSLKTEDTAVYYCVRHGNFGNSYVSWFAYWGQGTLVTVSSGGGGSDKTHTCPPCPAPEAAGPSVFLFPPKPKDTLMISRTPEVTCVVVDVSHEDPEVKFNWYVDGVEVHNAKTKPREEQYNSTYRVVSVLTVLHQDWLNGKEYKCKVSNKALPAPIEKTISKAKGQPREPQVYTLPPSREEMTKNQVSLWCLVKGFYPSDIAVEWESNGQPENNYKTTPPVLDSDGSFFLYSKLTVDKSRWQQGNVFSCSVMHEALHNHYTQKSLSLSPGGGGGSGGGGSGGGGSGGGGSQVQLVQSGAEVKKPGASVKVSCKASGYTFAGFEMHWVRQAPGQGLEWMGAIDPKTGGTDYNQKFKDRVTMTRDTSISTAYMELSRLRSDDTAVYYCARDLGYFDVWGQGTLVTVSS
chain 2: QVQLVQSGAEVKKPGASVKVSCKASGYTFTSYVMHWVRQKPGQGLEWIGYINPYNEGTESTDKFKGRATMTSDKSTSTVYMELSSLRSEDTAVYYCASIYYGYEGTYFGVWGQGTLVTVSSASTKGPSVFPLAPSSKSTSGGTAALGCLVKDYFPEPVTVSWNSGALTSGVHTFPAVLQSSGLYSLSSVVTVPSSSLGTQTYICNVNHKPSNTKVDKKVEPKSCGGGGSGGGGSGGGGSGGGGSQAVVTQEPSLTVSPGGTVTLTCRSSTGAVTTSNYANWVQQKPGQAPRGLIGGTNKRAPWTPARFSGSLLGGKAALTITGAQAEDEADYYCALWYSNLWVFGGGTKLTVLGGGGSDKTHTCPPCPAPEAAGPSVFLFPPKPKDTLMISRTPEVTCVVVDVSHEDPEVKFNWYVDGVEVHNAKTKPREEQYNSTYRVVSVLTVLHQDWLNGKEYKCKVSNKALPAPIEKTISKAKGQPREPQVYTLPPSREEMTKNQVSLSCAVKGFYPSDIAVEWESNGQPENNYKTTPPVLDSDGSFFLVSKLTVDKSRWQQGNVFSCSVMHEALHNHYTQKSLSLSPGGGGGSGGGGSGGGGSGGGGSDIQMTQSPSSLSASVGDRVTITCRASQDIRSNLNWYQQKPGGAVKLLIYYTSRLHSGVPSRFSGSGSGTDYTLTISSLQPEDFATYFCQQSEKLPRTFGGGTKVEIR
chain 3: B2 chain 3
notes: B7H3/CD3/CD137 tri-specific; central CD3 Fv, terminal CD137 Fv
B4: Ly2128 (multi-specific antibody)
chain 1: QVQLVQSGAEVKKPGASVKVSCKASGYTFTSYVMHWVRQKPGQGLEWIGYINPYNEGTESTDKFKGRATMTSDKSTSTVYMELSSLRSEDTAVYYCASIYYGYEGTYFGVWGQGTLVTVSSASTKGPSVFPLAPSSKSTSGGTAALGCLVKDYFPEPVTVSWNSGALTSGVHTFPAVLQSSGLYSLSSVVTVPSSSLGTQTYICNVNHKPSNTKVDKKVEPKSCGGGGSGGGGSGGGGSGGGGSEVQLVESGGGLVQPGGSLRLSCAASGFTFSTYAMNWVRQAPGKGLEWVGRIRSKYNNYATYYADSVKGRFTISRDDSKNSLYLQMNSLKTEDTAVYYCVRHGNFGNSYVSWFAYWGQGTLVTVSSGGGGSDKTHTCPPCPAPEAAGPSVFLFPPKPKDTLMISRTPEVTCVVVDVSHEDPEVKFNWYVDGVEVHNAKTKPREEQYNSTYRVVSVLTVLHQDWLNGKEYKCKVSNKALPAPIEKTISKAKGQPREPQVYTLPPSREEMTKNQVSLWCLVKGFYPSDIAVEWESNGQPENNYKTTPPVLDSDGSFFLYSKLTVDKSRWQQGNVFSCSVMHEALHNHYTQKSLSLSPGGGGGSGGGGSGGGGSGGGGSQVQLVQSGAEVKKPGASVKVSCKASGYTFTSYYIHWVRQAPGQGLEWIGCIYPGNVNTNYNEKFKDRATLTVDTSISTAYMELSRLRSDDTAVYFCTRSHYGLDWNFDVWGQGTTVTVSS
chain 2: not shown
chain 3: B2 chain 3
notes: Tri-specific B7H3/CD3/CD28; central CD3 Fv, terminal CD28 Fv

In this assay the target is CD3 (human). The experiment in a line: ELISA or FCM (as in Example 2). Background: In an ELISA, binding on a coated surface is turned into a signal by an enzyme label.
B1: the EC50 (usually the concentration that produces a half-maximal response) worked out at 0.03 µg/mL.
Molecule B2 gave an EC50 of 0.419 µg/mL.
As for B3, the figure is 0.74 µg/mL; as for B4, 1.08 µg/mL.

These data come from patent publication EP4803149A2 (Lyvgen Biopharma Holdings Limited, dated 2026).
